Measurements from PMC9073949 (Crystal Growth & Design, 2022).
“And” between values parts separate entries of the source, which are not always exact repeats. Equal entries are not always repeated. Where two headings read alike, the source gives them in different places.

Assays:
[1] = for solubility: equilibrium with crystals, UV 280 nm
Protocol: (§1) Precise temperature control was achieved by using incubators held at a constant temperature. Citric acid buffer (0.1 M) was prepared at different pH levels by varying the ratio between citric acid and tri-sodium citrate. The pH was determined using a Jenway 4330 pH and conductivity meter (Jenway, UK) with an instrument resolution of around ±0.02 pH units. Zinc sulfate (ZnSO4), zinc chloride (ZnCl2), or zinc acetate (ZnAc) were dissolved in citric acid buffer as a zinc salt stock solution. […] Each experimental condition was repeated multiple times, and the error bars represent the deviation between these repetitions. The desupersaturation (crystallization occurs and the solution concentration decreases) was monitored by measuring the UV–vis absorption at a wavelength of 280 nm with a NanoDrop One^c microvolume UV–vis spectrophotometer (Thermo Fischer Scientific, USA). A sample as small as 10–20 μL was withdrawn from the crystallizer (Eppendorf tube) and was centrifuged (6000 rpm, 10–20 min). […] An extinction coefficient of 1.04 mL·mg^–1·cm^–1 was utilized.[32] Multiple dilutions for every sample were made to minimize dilution errors. The crystal slurry which remained in the centrifuged sample was observed underneath an optical microscope (CX-41, Olympus, Japan) to confirm that the decrease in concentration is because of crystallization and not due to other phenomena, such as amorphous precipitation.
(§2) This lag time is commonly termed as induction time.[33] We found the induction time graphically by finding the intersection between the tangents of the point of inflection (tangent of the biggest gradient after the solution concentration dropped substantially) and the initial concentration (which stays constant until the solution concentration drops substantially). A graphical visualization and a detailed definition and justification of induction time can be found in the Supporting Information.
To ensure that the true solubility concentration was measured, the samples were gently mixed frequently with pipettes once the crystallization experiment had finished. […] Once the concentration had stabilized, that is, no significant change over multiple days, this concentration was taken as solubility.

[2] = Dynamic light scattering: diffusion coefficient and polydispersity of insulin; assay type: physicochemical; conditions: DLS
Protocol: The solutions were prepared identically to the crystallization solutions which have been described previously. The solutions were filtered with a 0.22 μm pore size filter into a disposal cuvette (polystyrene) which then was loaded into a Zetasizer μV (Malvern, UK).

[3] = Static light scattering (Debye plot): second osmotic virial coefficient B22 and derived activity coefficient; assay type: physicochemical; conditions: for B22 (second virial coefficient): SLS Debye plot, ≤ 3 mg·mL^–1, 24.0 °C
Description: The procedure was identical to the DLS experiments, but instead of disposable cuvettes, a quartz cuvette was utilized. After each run, the quartz cuvette was carefully washed with deionized water, ethanol, and IPA followed by drying to remove any impurities and dust before further usage for the next sample. A solvent refractive index of 1.3304 and a refractive index increment of Δn/Δc = 0.183 were utilized.[34] The second virial coefficient was obtained by using Debye plots at low protein concentration (≤ 3 mg·mL^–1).

[4] = Insulin crystallization kinetics (desupersaturation, induction time, crystal yield); assay type: physicochemical
Protocol: as §1, §2
The crystal yield was calculated to evaluate the performance of crystallization. […] The yield can be either expressed in terms of concentration or supersaturation ratio, which is St = ct/c* for an ideal solution with […] at time zero. [drawing 2] 2

[5] = pH 6.0, St=0 = 10.0, ZnSO4, 24.0 °C
[6] = pH 6.0, initial insulin 3 mg·mL^–1, ZnSO4 […], 24.0 °C

Human insulin
solubility ([1]; pH 6.0, ZnSO4, 73 mM citric buffer, 7 mM HEPES, 24.0 °C): 0.14 mg·mL^–1
increase in solubility ([1]; pH 6.0 to pH 6.7, ZnSO4, 24.0 °C): 5 fold
solubility ([1]; pH 6.5, ZnSO4, 73 mM citric buffer, 7 mM HEPES, 24.0 °C): 0.41 mg·mL^–1
increase in solubility ([1]; pH 6.5 to pH 6.7 (0.2 pH units), ZnSO4, 24.0 °C): roughly 70%
insulin equilibrium concentration (solubility c*) ([1]; pH 6.7, ZnSO4 (SO4^2– anion), thermodynamic, equilibrium with crystals after crystallization, 73 mM citric buffer, 7 mM HEPES, 24.0 °C, monitored up to 4 weeks, UV 280 nm of centrifuged supernatant): 0.70 mg·mL^–1 and 0.70 ± 0.03 mg·mL^–1
diffusion coefficient ([2]; pH 6.0, lower end of insulin concentrations probed, 24.0 °C): 0.99 × 10^–6 cm^2·s^–1
diffusion coefficient ([2]; pH 6.0, upper end of insulin concentrations probed, 24.0 °C): 0.86 × 10^–6 cm^2·s^–1
diffusion coefficient ([2]; pH 6.7, Ac^2– anion, cins = 3 mg·mL^–1, 24.0 °C): 0.87 ± 0.1·10^–3 10^–6 cm^2·s^–1
diffusion coefficient ([2]; pH 6.7, Cl^– anion, cins = 3 mg·mL^–1, 24.0 °C): 0.87 ± 0.5·10^–3 10^–6 cm^2·s^–1
B22 (second virial coefficient) ([3]; pH 6.0): –4.23 × 10^–4 mL·mol·g^–2
B22 (second virial coefficient) ([3]; pH 6.2): –2.47 × 10^–4 mL·mol·g^–2
B22 (second virial coefficient) ([3]; pH 6.5): –4.18 × 10^–4 mL·mol·g^–2
B22 (second virial coefficient) ([3]; pH 6.7): –4.0 × 10^–4 mL·mol·g^–2
γ (activity coefficient) ([3]; pH 6.7, calculated from B22 with eq 4, 24.0 °C): 0.96
desupersaturation rate after a yield of 85% was achieved ([4]; St=0 = 10.0, pH 6.0): 0.03 h^–1
desupersaturation rate after a yield of 85% was achieved ([4]; St=0 = 10.0, pH 6.2): 0.01 h^–1
desupersaturation rate after a yield of 85% was achieved ([4]; St=0 = 10.0, pH 6.5): 0.07 h^–1
desupersaturation rate after a yield of 85% was achieved ([4]; St=0 = 10.0, pH 6.7): 0.02 h^–1
t50% (time required to achieve a yield of 50%) ([4]; pH 6.0, St=0 = 5.6): 128.0 h
induction time ([4]; pH 6.0, St=0 = 5.6, ZnSO4, 24.0 °C): 81.0 h
crystallization rate ΔS/Δt [4, 5]: 0.18 h^–1
induction time [4, 5]: 26.5 h
time after which the concentration drops [4, 6]: 4.0 h
time to reach quasi-equilibrium concentration [4, 6]: roughly 20.0 h
reduction in induction time ([4]; pH 6.0, initial supersaturation ratio increased from 5.6 to 10.0): 67%
decrease in induction time ([4]; pH 6.0 to pH 6.7 at St=0 = 7.4): roughly 81%
decrease in induction time ([4]; pH 6.0 to pH 6.7 at St=0 = 10.0): ~88%
reduction in induction time ([4]; pH 6.5, initial supersaturation ratio increased from 5.6 to 10.0): 77%
crystallization rate ΔS/Δt ([4]; pH 6.7, St=0 = 5.7, 12.0 h to 41.0 h, ZnSO4, 24.0 °C): 0.13 h^–1
crystallization rate ΔS/Δt ([4]; pH 6.7, St=0 = 10.0, 1.3 h to 26.0 h, ZnSO4, 24.0 °C): 0.32 h^–1
time to reach quasi-equilibrium concentration ([4]; pH 6.7, initial insulin 3 mg·mL^–1, ZnSO4 […], 24.0 °C): ~80.0 h
